In PMC10622577, “Structural basis for stabilisation of the RAD51 nucleoprotein filament by BRCA2” (Nature Communications, 2023):
“Also recorded” adds a separate entry of the source. Where no end group is shown, it is not given here. MBP = maltose-binding protein (N-terminal fusion tag)

Tests used:
[1] = test system: RAD51–ssDNA NPF; assay: EMSA of MBP-fusion TR2 mutants binding the RAD51-ssDNA NPF; set-up: species or system human; details: for binding of MBP-TR2 mutant to the RAD51 NPF: ssDNA 60 nt, His6-MBP-TR2 5 min, room temperature, 25 mM HEPES pH 7.5, 150 mM NaCl, 2 mM ATP, 5 mM CaCl2, repeated once
Excerpt: The local resolution at the TR2 site was lower than for the global map, which complicated the model fitting for the peptide. Fitting with the correct sequence register was guided by the density of the large side chains in the highly conserved TR2 region 3296-KAFQPPR-3302 (Fig. 3A). To validate our molecular model of BRCA2 TR2 association with the RAD51 NPF, we performed a mutational analysis of the RAD51–TR2 interface, targeting residues that are predicted by the structure to be important for the RAD51-TR2 interaction (Fig. 4A, B). We generated TR2 mutants as Maltose-Binding Protein (MBP) fusion proteins (Supplementary Fig. 1) and measured by EMSA their ability to bind the RAD51 NPF.
Fig. 4 Structure-based mutational analysis of the BRCA2 TR2-RAD51 interface. A Multiple sequence alignment of BRCA2 TR2 sequences, coloured according to residue type (Hse: Homo sapiens; Gga: Gallus gallus; Xla: Xenopus laevis; Dre: […]). B Drawing of TR2 and RAD51 amino acids targeted for mutagenesis. Drawing style as in D–F of Fig. 3. C–E EMSA analysis of RAD51–ssDNA NPF binding by MBP-fusion TR2 mutants K3296A, Q3299A, R3302A (C); 3A (K3296A, Q3299, R3302A), 3D (K3296D, Q3299D, R3302D) (D); S3291A, F3298A (E). The TR2 peptide was used as a control. EMSA experiments repeated once. Source data are provided as a Source Data file.
An E.coli codon-optimised gene fragment encoding residues D3260 to Y3308 of human BRCA2 was synthesised (IDT) with flanking BamHI and HindIII restriction sites and ligated into the pMAT11 expression vector[44] (Addgene plasmid #112592) to express BRCA2 TR2 as a dual-tag His6-MBP (Maltose-Binding Protein) fusion protein. pMAT11 constructs for expression of BRCA2 TR2 mutants S3291A, F3298A, K3296A, Q3299A, R3302A, the triple K3296, Q3299, […] alanine (3A) and aspartic acid (3D) mutants were produced in the same way as the wild-type construct.
All His6-MBP-BRCA2 TR2 fusion proteins were expressed and purified in an identical manner. pMat11-His6-MBP-TR2 constructs were transformed into E.coli BL21(DE3)Rosetta2 and transformed cells were used to inoculate 2YT growth medium supplemented with 50 μg/ml ampicillin. Cells were cultured until an OD600 reading of 0.7 before induction with 0.5 mM IPTG. Cell pellets were resuspended in resuspension buffer and sonicated to lyse cells in the presence of EDTA-free protease inhibitor. Cell lysate supernatant was loaded on a 5-ml HisTrap HP column pre-equilibrated with His Buffer A before elution in 40% His Buffer B. Fractions containing the His6-MBP-BRCA2 TR2 protein were pooled and purified further by size-exclusion chromatography using a 16/600 Superdex S75 pg (Cytiva) column pre-equilibrated in storage buffer. To minimise the presence of proteolytically degraded protein, a single fraction at the front of the elution peak containing His6-MBP-TR2 was retained and concentrated to at least 100 μM before flash freezing in liquid nitrogen and storage at −80 °C.
To assess RAD51 nucleoprotein (NPF) formation, wild-type and mutant RAD51 proteins were incubated with DNA in buffer: 25 mM HEPES pH 7.5, 150 mM NaCl, 2 mM DTT, 2 mM ATP, 5 mM CaCl2 for 15 minutes at room temperature. For filament binding of the TR2 peptide or His6-MBP-TR2 protein, the RAD51 NPFs were incubated with TR2 for further 5 minutes at room temperature. For filament binding of BRC4, the BRC4 peptide was pre-mixed with RAD51 for 10 minutes at room temperature before addition of DNA. For experiments with mono-streptavidin (mSA)-capped DNA, mSA (Sigma) was added in 5× molar excess of biotin labels for 15 minutes at room temperature prior to the addition of RAD51. Concentrations are provided in figures and DNA sequences for each experiment are reported in Supplementary Table 1.
Before electrophoresis, samples were mixed with a 0.5:1 volume of 50% (w/v) sucrose solution and analysed on a pre-run 0.5% (w/v) agarose gel in 0.5× TB buffer at 35 V for 2.5 hours at 4 °C. […]

[2] = target: T1, human RAD51, wild type (human, UniProt Q06609 1-339); assay: native gel or EMSA; TR2 peptide titrated on RAD51 NPFs pre-formed on fluorescein-labelled ss- or dsDNA; 25 mM HEPES pH 7.5, 150 mM NaCl, 2 mM DTT, 2 mM ATP, 5 mM CaCl2, room temperature, TR2 added for 5 minutes; 0.5% agarose gel at 4 °C; details: both partners purified
T1 construct: RAD51, human DNA-strand exchange protein; In all assays RAD51 stood as a nucleoprotein filament on ss- or dsDNA with ATP and CaCl2; probably the whole, untagged protein; also called WT RAD51; RAD51 NPF; source: E. coli BL21(DE3)Rosetta2, co-expressed with His6-MBP-BRCA2 BRC4, purified (HisTrap, heparin, SEC)
T1 sequence: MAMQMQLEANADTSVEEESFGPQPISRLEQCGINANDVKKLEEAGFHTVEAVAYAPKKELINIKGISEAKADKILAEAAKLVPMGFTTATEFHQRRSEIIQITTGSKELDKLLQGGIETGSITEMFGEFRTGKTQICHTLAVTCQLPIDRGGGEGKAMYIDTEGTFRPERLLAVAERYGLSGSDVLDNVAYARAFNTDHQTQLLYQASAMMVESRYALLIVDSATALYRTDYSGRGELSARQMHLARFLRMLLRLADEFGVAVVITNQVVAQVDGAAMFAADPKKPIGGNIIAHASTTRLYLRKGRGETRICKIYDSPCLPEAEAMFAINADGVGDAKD

[3] = target: T1, human RAD51, wild type; assay: native gel or EMSA; His6-MBP-TR2 fusion proteins added for 5 minutes to RAD51–ssDNA NPFs; 25 mM HEPES pH 7.5, 150 mM NaCl, 2 mM DTT, 2 mM ATP, 5 mM CaCl2, room temperature; 0.5% agarose gel; details: both partners purified
[4] = target: T2, RAD51;BRCA2 TR2 peptide (Homo sapiens;Homo sapiens, UniProt Q06609;P51587 1-339;, |); assay: cryo-EM micrographs; TR2 1:0.5; filament bundling; EMSA: 25 mM HEPES pH 7.5, 150 mM NaCl, 2 mM DTT, 2 mM ATP, 5 mM CaCl2, room temperature; SPR: 25 mM HEPES pH 7.4, 100 mM NaCl, 2 mM DTT, 2 mM ATP, 5 mM CaCl2, 5 mM MgCl2; details: tags: untagged (co-expressed with His6-MBP-BRC4, pMBP4-RAD51);
[5] = target: T2, RAD51;BRCA2 TR2 peptide; assay: SPR; TR2 on preformed filament; ATP, Ca2+, Mg2+; EMSA: 25 mM HEPES pH 7.5, 150 mM NaCl, 2 mM DTT, 2 mM ATP, 5 mM CaCl2, room temperature; SPR: 25 mM HEPES pH 7.4, 100 mM NaCl, 2 mM DTT, 2 mM ATP, 5 mM CaCl2, 5 mM MgCl2; details: tags: untagged (co-expressed with His6-MBP-BRC4, pMBP4-RAD51);
[6] = target: T2, RAD51;BRCA2 TR2 peptide; assay: EMSA; TR2 enhances filament; ATP, Ca2+; EMSA: 25 mM HEPES pH 7.5, 150 mM NaCl, 2 mM DTT, 2 mM ATP, 5 mM CaCl2, room temperature; SPR: 25 mM HEPES pH 7.4, 100 mM NaCl, 2 mM DTT, 2 mM ATP, 5 mM CaCl2, 5 mM MgCl2; details: tags: untagged (co-expressed with His6-MBP-BRC4, pMBP4-RAD51);

Molecule: S3291A: His6-MBP fusion protein of BRCA2 TR2 mutant S3291A ({His6-MBP}-DDQKNCKKRRALDFLSRLPLPPPVSPICTFVAPAAQKAFQPPRSCGTKY; cysteine pairing not given here)
- binding of MBP-TR2 mutant to the RAD51 NPF [1]: drastically reduced
- residual binding of MBP-TR2 mutant to the RAD51 NPF ([1]; ssDNA, Fig. 4E): still able to associate with the filament; also recorded: retains a degree of binding to the filament

Molecule: F3298A: His6-MBP fusion protein of BRCA2 TR2 mutant F3298A ({His6-MBP}-DDQKNCKKRRALDFLSRLPLPPPVSPICTFVSPAAQKAAQPPRSCGTKY; cysteine pairing not given here)
- binding of MBP-TR2 mutant to the RAD51 NPF [1]: abolished TR2 binding to the RAD51 NPF; also recorded: complete loss of TR2 binding

Molecule: Q3299A: His6-MBP fusion protein of BRCA2 TR2 mutant Q3299A ({His6-MBP}-DDQKNCKKRRALDFLSRLPLPPPVSPICTFVSPAAQKAFAPPRSCGTKY; cysteine pairing not given here)
- binding of MBP-TR2 mutant to the RAD51 NPF [1]: increased association with the filament

Molecule: K3296A: His6-MBP fusion protein of BRCA2 TR2 mutant K3296A ({His6-MBP}-DDQKNCKKRRALDFLSRLPLPPPVSPICTFVSPAAQAAFQPPRSCGTKY; cysteine pairing not given here)
- binding of MBP-TR2 mutant to the RAD51 NPF [1]: modest decrease in filament binding

Molecule: R3302A: His6-MBP fusion protein of BRCA2 TR2 mutant R3302A ({His6-MBP}-DDQKNCKKRRALDFLSRLPLPPPVSPICTFVSPAAQKAFQPPASCGTKY; cysteine pairing not given here)
- binding of MBP-TR2 mutant to the RAD51 NPF [1]: modest decrease in filament binding

B1: BRCA2 TR2 peptide spanning amino acids 3260 to 3308 (peptide, UniProt P51587 3260-3308, looked up)
peptide: DDQKNCKKRRALDFLSRLPLPPPVSPICTFVSPAAQKAFQPPRSCGTKY
notes: Only residues 3289 to 3304 are modelled in the PDB entries; source: synthetic peptide (synthesised commercially)
- binding result [2]: binds

B2: His6-MBP-BRCA2 TR2 R3302A (domain or fragment, human, UniProt P51587 3260-3308, looked up)
chain: DDQKNCKKRRALDFLSRLPLPPPVSPICTFVSPAAQKAFQPPASCGTKY
notes: BRCA2, human, TR2 motif, residues D3260 to Y3308; source: E. coli BL21(DE3)Rosetta2, purified (HisTrap, SEC); not shown: His6, N-terminal, kept; MBP, N-terminal, kept
- binding result [3]: binds

B3: His6-MBP-BRCA2 TR2 K3296A (domain or fragment, human, UniProt P51587 3260-3308, looked up)
chain: DDQKNCKKRRALDFLSRLPLPPPVSPICTFVSPAAQAAFQPPRSCGTKY
notes: as for B2
- binding result [3]: binds

B4: His6-MBP-BRCA2 TR2 Q3299A (domain or fragment, human, UniProt P51587 3260-3308, looked up)
chain: DDQKNCKKRRALDFLSRLPLPPPVSPICTFVSPAAQKAFAPPRSCGTKY
notes: as for B2
- binding result [3]: binds

B5: 32-nt ssDNA Cy5 (ssDNA)
DNA: TTTTTTTTTTTCGTGTGGTACTTTTTTTTTTT
- binding result ([4]; label: 5' Cy5): binds

B6: 60-nt ssDNA biotin (ssDNA)
DNA: ATGGTGTGTGTAGGTTAATGTGAGGAGGAGAGGTGAAGAAGGAGGAGAGAAGAAGGAGGC
- binding result ([5]; label: 5' biotin): binds

B7: 60-nt ssDNA FAM (ssDNA)
DNA: ATGGTGTGTGTAGGTTAATGTGAGGAGGAGAGGTGAAGAAGGAGGAGAGAAGAAGGAGGC
- binding result ([6]; label: 5' FAM): binds

B8: 60-bp dsDNA FAM (dsDNA)
DNA 1: ATGGTGTGTGTAGGTTAATGTGAGGAGGAGAGGTGAAGAAGGAGGAGAGAAGAAGGAGGC
DNA 2: GCCTCCTTCTTCTCTCCTCCTTCTTCACCTCTCCTCCTCACATTAACCTACACACACCAT
- binding result ([6]; label: 5' FAM on strand 1, blunt): binds

B9: 60-bp dsDNA biotin (dsDNA)
DNA 1: ATGGTGTGTGTAGGTTAATGTGAGGAGGAGAGGTGAAGAAGGAGGAGAGAAGAAGGAGGC
DNA 2: GCCTCCTTCTTCTCTCCTCCTTCTTCACCTCTCCTCCTCACATTAACCTACACACACCAT
- binding result ([5]; label: 5' biotin on strand 1, blunt): binds

B10: 50-nt dsDNA Cy3 (dsDNA)
DNA 1: CCGACTGACGCTCAACATAGGTACCACACGGCGAGCTCGATGCACCTCCA
DNA 2: TGGAGGTGCATCGAGCTCGCGACAAACCTTCTATGTTGAGCGTCAGTCGG
- binding result ([4]; label: 3' Cy3 on strand 1, blunt ends, internal mismatched bubble about 10 nt): binds
